This is an account of results in patent publication US20220048967A1 (published 2022).

Numbered stars: 1 amine (or outer) side, 2 acyl side, 3 side chain; on linkers, the order of the positions; unused ones are H or OH. Square brackets hold non-standard residues; d marks the D form. Side chains are listed from the residue outwards. Ends that are not written are not given here. * marks the point of attachment. C20 diacid = O=C(O)CCCCCCCCCCCCCCCCCCC(=O)*; γGlu = O=C(O)[C@H](CCC(=O)[*:2])N[*:1]; AEEA = NCCOCCOCC(=O)O; Aib = CC(C)(N)C(=O)O

One test deals with human GLP-1 receptor (human, UniProt P43220 24-463). Nature of the test: cell-based or functional assay.
The next test concerns the target T1, human GIP receptor (human, UniProt P48546 22-466).
T1 sequence (looked up): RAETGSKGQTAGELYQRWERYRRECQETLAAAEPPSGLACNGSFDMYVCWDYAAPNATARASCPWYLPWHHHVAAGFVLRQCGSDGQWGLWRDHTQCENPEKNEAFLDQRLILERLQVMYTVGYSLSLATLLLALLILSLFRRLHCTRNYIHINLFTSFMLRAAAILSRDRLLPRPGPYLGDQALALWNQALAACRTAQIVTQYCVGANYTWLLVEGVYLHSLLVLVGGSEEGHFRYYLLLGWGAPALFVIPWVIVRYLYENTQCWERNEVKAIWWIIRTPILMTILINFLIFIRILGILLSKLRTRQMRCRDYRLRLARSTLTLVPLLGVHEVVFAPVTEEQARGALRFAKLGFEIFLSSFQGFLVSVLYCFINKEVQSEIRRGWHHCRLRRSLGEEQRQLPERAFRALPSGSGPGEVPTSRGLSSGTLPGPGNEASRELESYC
Nature of the test: cell-based or functional assay.

B1: Example 47 (peptide)
peptide: Y[Aib]EGTFTSDYSILLDKIAQ[Aib]AFIEYLIEGGPSSGAPPK([AEEA-AEEA-γGlu-C20 diacid])S-NH2
modifications: N-terminus assumed
SMILES: CC[C@H](C)[C@H](NC(=O)[C@H](CCCCN)NC(=O)[C@H](CC(=O)O)NC(=O)[C@H](CC(C)C)NC(=O)[C@H](CC(C)C)NC(=O)[C@@H](NC(=O)[C@H](CO)NC(=O)[C@H](Cc1ccc(O)cc1)NC(=O)[C@H](CC(=O)O)NC(=O)[C@H](CO)NC(=O)[C@@H](NC(=O)[C@H](Cc1ccccc1)NC(=O)[C@@H](NC(=O)CNC(=O)[C@H](CCC(=O)O)NC(=O)C(C)(C)NC(=O)[C@@H](N)Cc1ccc(O)cc1)[C@@H](C)O)[C@@H](C)O)[C@@H](C)CC)C(=O)N[C@@H](C)C(=O)N[C@@H](CCC(N)=O)C(=O)NC(C)(C)C(=O)N[C@@H](C)C(=O)N[C@@H](Cc1ccccc1)C(=O)N[C@H](C(=O)N[C@@H](CCC(=O)O)C(=O)N[C@@H](Cc1ccc(O)cc1)C(=O)N[C@@H](CC(C)C)C(=O)N[C@H](C(=O)N[C@@H](CCC(=O)O)C(=O)NCC(=O)NCC(=O)N1CCC[C@H]1C(=O)N[C@@H](CO)C(=O)N[C@@H](CO)C(=O)NCC(=O)N[C@@H](C)C(=O)N1CCC[C@H]1C(=O)N1CCC[C@H]1C(=O)N[C@@H](CCCCNC(=O)COCCOCCNC(=O)COCCOCCNC(=O)CC[C@H](NC(=O)CCCCCCCCCCCCCCCCCCC(=O)O)C(=O)O)C(=O)N[C@@H](CO)C(N)=O)[C@@H](C)CC)[C@@H](C)CC
B1: in the test with human GLP-1 receptor, the “hGLP1R cAMP EC50 ratio” value was 0.089 and the “hGLP1R cAMP Rel EC50” value came to 0.702 nM. In the test with human GIP receptor, the “hGIPR cAMP EC50 ratio” value came out at 0.654 and the “hGIPR cAMP Rel EC50” value is 0.287 nM.

B2: Example 44 (peptide)
peptide: Y[Aib]EGTFTSDYSILLDKIAQ[Aib]AFIEYLIEGGPSSGK([AEEA-AEEA-γGlu-C20 diacid])PPPS-NH2
modifications: N-terminus assumed
SMILES: CC[C@H](C)[C@H](NC(=O)[C@H](CCCCN)NC(=O)[C@H](CC(=O)O)NC(=O)[C@H](CC(C)C)NC(=O)[C@H](CC(C)C)NC(=O)[C@@H](NC(=O)[C@H](CO)NC(=O)[C@H](Cc1ccc(O)cc1)NC(=O)[C@H](CC(=O)O)NC(=O)[C@H](CO)NC(=O)[C@@H](NC(=O)[C@H](Cc1ccccc1)NC(=O)[C@@H](NC(=O)CNC(=O)[C@H](CCC(=O)O)NC(=O)C(C)(C)NC(=O)[C@@H](N)Cc1ccc(O)cc1)[C@@H](C)O)[C@@H](C)O)[C@@H](C)CC)C(=O)N[C@@H](C)C(=O)N[C@@H](CCC(N)=O)C(=O)NC(C)(C)C(=O)N[C@@H](C)C(=O)N[C@@H](Cc1ccccc1)C(=O)N[C@H](C(=O)N[C@@H](CCC(=O)O)C(=O)N[C@@H](Cc1ccc(O)cc1)C(=O)N[C@@H](CC(C)C)C(=O)N[C@H](C(=O)N[C@@H](CCC(=O)O)C(=O)NCC(=O)NCC(=O)N1CCC[C@H]1C(=O)N[C@@H](CO)C(=O)N[C@@H](CO)C(=O)NCC(=O)N[C@@H](CCCCNC(=O)COCCOCCNC(=O)COCCOCCNC(=O)CC[C@H](NC(=O)CCCCCCCCCCCCCCCCCCC(=O)O)C(=O)O)C(=O)N1CCC[C@H]1C(=O)N1CCC[C@H]1C(=O)N1CCC[C@H]1C(=O)N[C@@H](CO)C(N)=O)[C@@H](C)CC)[C@@H](C)CC
B2: in the test with human GLP-1 receptor, the “hGLP1R cAMP EC50 ratio” value was 0.0918 and the “hGLP1R cAMP Rel EC50” value amounted to 0.752 nM. For the same molecule, in the test with human GIP receptor, the “hGIPR cAMP EC50 ratio” value was determined as 1.11 and the “hGIPR cAMP Rel EC50” value was found to be 0.128 nM.

B3: Example 43 (peptide)
peptide: Y[Aib]EGTFTSDYSILLDKIAQ[Aib]AFIEYLIEGGPSSK([AEEA-AEEA-γGlu-C20 diacid])APPPS-NH2
modifications: N-terminus assumed
SMILES: CC[C@H](C)[C@H](NC(=O)[C@H](CCCCN)NC(=O)[C@H](CC(=O)O)NC(=O)[C@H](CC(C)C)NC(=O)[C@H](CC(C)C)NC(=O)[C@@H](NC(=O)[C@H](CO)NC(=O)[C@H](Cc1ccc(O)cc1)NC(=O)[C@H](CC(=O)O)NC(=O)[C@H](CO)NC(=O)[C@@H](NC(=O)[C@H](Cc1ccccc1)NC(=O)[C@@H](NC(=O)CNC(=O)[C@H](CCC(=O)O)NC(=O)C(C)(C)NC(=O)[C@@H](N)Cc1ccc(O)cc1)[C@@H](C)O)[C@@H](C)O)[C@@H](C)CC)C(=O)N[C@@H](C)C(=O)N[C@@H](CCC(N)=O)C(=O)NC(C)(C)C(=O)N[C@@H](C)C(=O)N[C@@H](Cc1ccccc1)C(=O)N[C@H](C(=O)N[C@@H](CCC(=O)O)C(=O)N[C@@H](Cc1ccc(O)cc1)C(=O)N[C@@H](CC(C)C)C(=O)N[C@H](C(=O)N[C@@H](CCC(=O)O)C(=O)NCC(=O)NCC(=O)N1CCC[C@H]1C(=O)N[C@@H](CO)C(=O)N[C@@H](CO)C(=O)N[C@@H](CCCCNC(=O)COCCOCCNC(=O)COCCOCCNC(=O)CC[C@H](NC(=O)CCCCCCCCCCCCCCCCCCC(=O)O)C(=O)O)C(=O)N[C@@H](C)C(=O)N1CCC[C@H]1C(=O)N1CCC[C@H]1C(=O)N1CCC[C@H]1C(=O)N[C@@H](CO)C(N)=O)[C@@H](C)CC)[C@@H](C)CC
For B3, in the test with human GLP-1 receptor, the “hGLP1R cAMP EC50 ratio” value amounted to 0.0777 and the “hGLP1R cAMP Rel EC50” value is 0.862 nM. Also, in the test with human GIP receptor, the “hGIPR cAMP EC50 ratio” value worked out at 1.28 and the “hGIPR cAMP Rel EC50” value is 0.112 nM.

B4: Example 46 (peptide)
peptide: Y[Aib]EGTFTSDYSILLDKIAQ[Aib]AFIEYLIEGGPSSGAPK([AEEA-AEEA-γGlu-C20 diacid])PS-NH2
modifications: N-terminus assumed
SMILES: CC[C@H](C)[C@H](NC(=O)[C@H](CCCCN)NC(=O)[C@H](CC(=O)O)NC(=O)[C@H](CC(C)C)NC(=O)[C@H](CC(C)C)NC(=O)[C@@H](NC(=O)[C@H](CO)NC(=O)[C@H](Cc1ccc(O)cc1)NC(=O)[C@H](CC(=O)O)NC(=O)[C@H](CO)NC(=O)[C@@H](NC(=O)[C@H](Cc1ccccc1)NC(=O)[C@@H](NC(=O)CNC(=O)[C@H](CCC(=O)O)NC(=O)C(C)(C)NC(=O)[C@@H](N)Cc1ccc(O)cc1)[C@@H](C)O)[C@@H](C)O)[C@@H](C)CC)C(=O)N[C@@H](C)C(=O)N[C@@H](CCC(N)=O)C(=O)NC(C)(C)C(=O)N[C@@H](C)C(=O)N[C@@H](Cc1ccccc1)C(=O)N[C@H](C(=O)N[C@@H](CCC(=O)O)C(=O)N[C@@H](Cc1ccc(O)cc1)C(=O)N[C@@H](CC(C)C)C(=O)N[C@H](C(=O)N[C@@H](CCC(=O)O)C(=O)NCC(=O)NCC(=O)N1CCC[C@H]1C(=O)N[C@@H](CO)C(=O)N[C@@H](CO)C(=O)NCC(=O)N[C@@H](C)C(=O)N1CCC[C@H]1C(=O)N[C@@H](CCCCNC(=O)COCCOCCNC(=O)COCCOCCNC(=O)CC[C@H](NC(=O)CCCCCCCCCCCCCCCCCCC(=O)O)C(=O)O)C(=O)N1CCC[C@H]1C(=O)N[C@@H](CO)C(N)=O)[C@@H](C)CC)[C@@H](C)CC
Turning to B4, in the test with human GLP-1 receptor, the “hGLP1R cAMP EC50 ratio” value came out at 0.0969 and the “hGLP1R cAMP Rel EC50” value was found to be 0.687 nM. In addition, in the test with human GIP receptor, the “hGIPR cAMP EC50 ratio” value was 0.828 and the “hGIPR cAMP Rel EC50” value turned out to be 0.172 nM.

B5: Example 45 (peptide)
peptide: Y[Aib]EGTFTSDYSILLDKIAQ[Aib]AFIEYLIEGGPSSGAK([AEEA-AEEA-γGlu-C20 diacid])PPS-NH2
modifications: N-terminus assumed
SMILES: CC[C@H](C)[C@H](NC(=O)[C@H](CCCCN)NC(=O)[C@H](CC(=O)O)NC(=O)[C@H](CC(C)C)NC(=O)[C@H](CC(C)C)NC(=O)[C@@H](NC(=O)[C@H](CO)NC(=O)[C@H](Cc1ccc(O)cc1)NC(=O)[C@H](CC(=O)O)NC(=O)[C@H](CO)NC(=O)[C@@H](NC(=O)[C@H](Cc1ccccc1)NC(=O)[C@@H](NC(=O)CNC(=O)[C@H](CCC(=O)O)NC(=O)C(C)(C)NC(=O)[C@@H](N)Cc1ccc(O)cc1)[C@@H](C)O)[C@@H](C)O)[C@@H](C)CC)C(=O)N[C@@H](C)C(=O)N[C@@H](CCC(N)=O)C(=O)NC(C)(C)C(=O)N[C@@H](C)C(=O)N[C@@H](Cc1ccccc1)C(=O)N[C@H](C(=O)N[C@@H](CCC(=O)O)C(=O)N[C@@H](Cc1ccc(O)cc1)C(=O)N[C@@H](CC(C)C)C(=O)N[C@H](C(=O)N[C@@H](CCC(=O)O)C(=O)NCC(=O)NCC(=O)N1CCC[C@H]1C(=O)N[C@@H](CO)C(=O)N[C@@H](CO)C(=O)NCC(=O)N[C@@H](C)C(=O)N[C@@H](CCCCNC(=O)COCCOCCNC(=O)COCCOCCNC(=O)CC[C@H](NC(=O)CCCCCCCCCCCCCCCCCCC(=O)O)C(=O)O)C(=O)N1CCC[C@H]1C(=O)N1CCC[C@H]1C(=O)N[C@@H](CO)C(N)=O)[C@@H](C)CC)[C@@H](C)CC
Take B5: in the test with human GLP-1 receptor, the “hGLP1R cAMP EC50 ratio” value is 0.0569 and the “hGLP1R cAMP Rel EC50” value stood at 1.03 nM. Further, in the test with human GIP receptor, the “hGIPR cAMP EC50 ratio” value was 1.75 and the “hGIPR cAMP Rel EC50” value was determined as 0.106 nM.
